Patent publication US20220119489A1, “COMPOSITIONS AND METHODS FOR TREATING MUSCULAR DYSTROPHY AND RELATED DISORDERS” (CHILDREN'S MEDICAL CENTER CORPORATION, priority 2019, published 2022)

T1: CD82 polypeptide (human) (human)
T1 sequence (P27701 whole entry, looked up): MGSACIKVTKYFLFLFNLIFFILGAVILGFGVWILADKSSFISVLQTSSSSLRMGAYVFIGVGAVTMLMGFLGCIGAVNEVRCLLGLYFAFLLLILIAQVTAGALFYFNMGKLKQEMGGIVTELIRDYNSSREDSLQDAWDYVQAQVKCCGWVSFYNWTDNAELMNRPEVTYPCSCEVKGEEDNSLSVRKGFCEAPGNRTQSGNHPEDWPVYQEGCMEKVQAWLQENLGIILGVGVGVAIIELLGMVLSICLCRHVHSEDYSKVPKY

B1: EHD2_HUMAN (protein)
chain: MFSWLKRGGARGQQPEAIRTVTSALKELYRTKLLPLEEHYRFGAFHSPALEDADFDGKPMVLVAGQYSTGKTSFIQYLLEQEVPGSRVGPEPTTDCFVAVMHGDTEGTVPGNALVVDPDKPFRKLNPFGNTFLNRFMCAQLPNQVLESISIIDTPGILSGAKQRVSRGYDFPAVLRWFAERVDLIILLFDAHKLEISDEFSEAIGALRGHEDKIRVVLNKADMVETQQLMRVYGALMWALGKVVGTPEVLRVYIGSFWSQPLLVPDNRRLFELEEQDLFRDIQGLPRHAALRKLNDLVKRARLVRVHAYIISYLKKEMPSVFGKENKKKQLILKLPVIFAKIQLEHHISPGDFPDCQKMQELLMAHDFTKFHSLKPKLLEALDEMLTHDIAKLMPLLRQEELESTEVGVQGGAFEGTHMGPFVERGPDEAMEDGEEGSDDEAEWVVTKDKSKYDEIFYNLAPADGKLSGSKAKTWMVGTKLPNSVLGRIWKLSDVDRDGMLDDEEFALASHLIEAKLEGHGLPANLPRRLVPPSKRRHKGSAE
B2: EHD4_HUMAN (protein)
chain: MFSWMGRQAGGRERAGGADAVQTVTGGLRSLYLRKVLPLEEAYRFHEFHSPALEDADFENKPMILLVGQYSTGKTTFIRYLLEQDFPGMRIGPEPTTDSFIAVMYGETEGSTPGNALVVDPKKPFRKLSRFGNAFLNRFMCSQLPNQVLKSISVIDSPGILSGEKQRISRGYDFCQVLQWFAERVDRIILLFDAHKLDISDEFSEAIKAFRGQDDKIRVVLNKADQVDTQQLMRVYGALMWSLGKVINTPEVLRVYIGSFWAQPLQNTDNRRLFEAEAQDLFRDIQSLPQKAAVRKLNDLIKRARLAKVHAYIISYLKKEMPSVFGKENKKRELISRLPEIYIQLQREYQISAGDFPEVKAMQEQLENYDFTKFHSLKPKLIEAVDNMLSNKISPLMNLISQEETSTPTQLVQGGAFDGTTEGPFNQGYGEGAKEGADEEEWVVAKDKPVYDELFYTLSPINGKISGVNAKKEMVTSKLPNSVLGKIWKLADCDCDGMLDEEEFALAKHLIKIKLDGYELPSSLPPHLVPPSHRKSLPKAD
B3: Annexin A1 (human) (protein)
chain: AMVSEFLKQAWFIENEEQEYVQTVKSSKGGPGSAVSPYPTFNPSSDVAALHKAIMVKGVDEATIIDILTKRNNAQRQQIKAAYLQETGKPLDETLKKALTGHLEEVVLALLKTPAQFDADELRAAMKGLGTDEDTLIEILASRTNKEIRDINRVYREELKRDLAKDITSDTSGDFRNALLSLAKGDRSEDFGVNEDLADSDARALYEAGERRKGTDVNVFNTILTTRSYPQLRRVFQKYTKYSKHDMNKVLDLELKGDIEKCLTAIVKCATSKPAFFAEKLHQAMKGVGTRHKALIRIMVSRSEIDMNDIKAFYQKMYGISLCQAILDETKGDYEKILVALCGGN
B4: Eh domain containing 1 (protein)
chain: MFSWVSKDARRKKEPELFQTVAEGLRQLYAQKLLPLEEHYRFHEFHSPALEDADFDNKPMVLLVGQYSTGKTTFIRHLIEQDFPGMRIGPEPTTDSFIAVMHGPTEGVVPGNALVVDPRRPFRKLNAFGNAFLNRFMCAQLPNPVLDSISIIDTPGILSGEKQRISRGYDFAAVLEWFAERVDRIILLFDAHKLDISDEFSEVIKALKNHEDKIRVVLNKADQIETQQLMRVYGALMWSLGKIINTPEVVRVYIGSFWSHPLLIPDNRKLFEAEEQDLFKDIQSLPRNAALRKLNDLIKRARLAKVHAYIISSLKKEMPNVFGKESKKKELVNNLGEIYQKIEREHQISPGDFPSLRKMQELLQTQDFSKFQALKPKLLDTVDDMLANDIARLMVMVRQEESLMPSQVVKGGAFDGTMNGPFGHGYGEGAGEGIDDVEWVVGKDKPTYDEIFYTLSPVNGKITGANAKKEMVKSKLPNTVLGKIWKLADVDKDGLLDDEEFALANHLIKVKLEGHELPADLPPHLVPPSKRRHE
B5: PRDX2_HUMAN (enzyme)
chain: ASGNARIGKPAPDFKATAVVDGAFKEVKLSDYKGKYVVLFFYPLDFTFVCPTEIIAFSNRAEDFRKLGCEVLGVSVDSQFTHLAWINTPRKEGGLGPLNIPLLADVTRRLSEDYGVLKTDEGIAYRGLFIIDGKGVLRQITVNDLPVGRSVDEALRLVQAFQYTDEHGEVCPAGWKPGSDTIKPNVDDSKEYFSKHN
B6: TGF beta receptor 1 (receptor)
chain: LQCFCHLCTKDNFTCVTDGLCFVSVTETTDKVIHNSMCIAEIDLIPRDRPFVCAPSSKTGSVTTTYCCNQDHCNKIELPTTVKSSPGLGPVELAAVIAGPVCFVCISLMLMVYICHNRTVIHHRVPNEEDPSLDRPFISEGTTLKDLIYDMTTSGSGSGLPLLVQRTIARTIVLQESIGKGRFGEVWRGKWRGEEVAVKIFSSREERSWFREAEIYQTVMLRHENILGFIAADNKDNGTWTQLWLVSDYHEHGSLFDYLNRYTVTVEGMIKLALSTASGLAHLHMEIVGTQGKPAIAHRDLKSKNILVKKNGTCCIADLGLAVRHDSATDTIDIAPNHRVGTKRYMAPEVLDDSINMKHFESFKRADIYAMGLVFWEIARRCSIGGIHEDYQLPYYDLVPSDPSVEEMRKVVCEQKLRPNIPNRWQSCEALRVMAKIMRECWYANGAARLTALRIKKTLSQLSQQEGIKM

Target: T1, CD82 polypeptide (human) (human)
Test: IP with anti CD82 antibodies, human myotubes, mass spectrometry

Total, 3:
B1, B2, B3, B4, B5, B6

Unique, 3:
B1, B2, B3, B4, B5, B6
